Laboratory results: patent publication US20090280480A1

Key:
[1] = biological target: NM fibers (amyloid fibers assembled from Sup35 NM; also used sonicated as seed) (Saccharomyces cerevisiae) (UniProt P05453); experiment: seeded fibre elongation; sedimentation of soluble NM plus acrylodan wavelength-shift assay, Lineweaver-Burk plot (Michaelis-Menten model of soluble NM binding to seed and converting)
[2] = biological target: NM fibers (amyloid fibers assembled from Sup35 NM; also used sonicated as seed) (Saccharomyces cerevisiae) (UniProt P05453); experiment: seeded fibre elongation; sedimentation of soluble NM plus acrylodan wavelength-shift assay, Lineweaver-Burk plot

Chain of NM fibers (amyloid fibers assembled from Sup35 NM; also used sonicated as seed) (Saccharomyces cerevisiae) (P05453 1-253): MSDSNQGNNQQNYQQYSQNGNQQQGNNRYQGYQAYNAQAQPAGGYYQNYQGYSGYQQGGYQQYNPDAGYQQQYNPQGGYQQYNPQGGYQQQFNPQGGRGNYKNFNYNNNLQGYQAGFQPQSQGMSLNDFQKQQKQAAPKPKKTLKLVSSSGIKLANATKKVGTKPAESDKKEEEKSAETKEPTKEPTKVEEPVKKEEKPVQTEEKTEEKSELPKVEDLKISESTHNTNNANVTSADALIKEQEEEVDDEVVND

NM^T158C-acrylodan (soluble) (from UniProt P05453 1-253) (other; other documents disagree on this pair)
Km [1]: 0.12 µM
kconf/Km (conformational conversion efficiency) [2]: 42000 M⁻¹ s⁻¹
